Experimental findings from PMC8141872 are described below.

The target of this experiment is GST-fused PINCH-1 LIM5 domain (residues 249-325) (human), P48059. Nature of the experiment: BLI; BLItz; GST-fused PINCH protein or GST (0.05 mg/ml) loaded on anti-GST biosensor, Rsu-1 WT or mutant in the mobile phase; 20 mM Tris pH 7.5, 150 mM NaCl, 1 mg/ml BSA, 0.05% Tween-20; 1:1 global fit; at least three measurements. Conditions: remark: other sources report otherwise. (BLI is a label-free optical method that tracks binding on a fibre tip over time.)
GST-fused PINCH-1 LIM5 domain (residues 249-325) (human), P48059, sequence (P48059 249-325): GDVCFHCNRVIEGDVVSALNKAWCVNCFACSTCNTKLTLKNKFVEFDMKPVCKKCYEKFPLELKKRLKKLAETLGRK

B1: Rsu-1 triple mutant R2W (Phe71Arg, Arg165Trp, Asp166Arg), Q15404 1-277 (natural protein)
chain: MSKSLKKLVEESREKNQPEVDMSDRGISNMLDVNGLFTLSHITQLVLSHNKLTMVPPNIAELKNLEVLNFRNNQIEELPTQISSLQKLKHLNLGMNRLNTLPRGFGSLPALEVLDLTYNNLSENSLPGNFFYLTTLRALYLSDNDFEILPPDIGKLTKLQILSLWRNDLISLPKEIGELTQLKELHIQGNRLTVLPPELGNLDLTGQKQVFKAENNPWVTPIADQFQLGVSHVFEYIRSETYKYLYGRHMQANPEPPKKNNDKSKKISRKPLAAKNR
Usually Kd stands for a measure of binding affinity in units of concentration. A higher Kd goes with lower affinity. In turn, B1 displayed a Kd of 33.3 µM.
